According to CN111494645A (UNIV CHINA PHARMA, dated 2020):
Numbering of substitutions follows the chain as printed. In names and notes the source's numbering stands. One block for each binder: values may come before it.

Tests used:
人DLL4抗原 [1] = molecular target: T1, 人DLL4抗原 (human, UniProt Q9NR61 27-524, limits assumed); test: ELISA, DLL4 antigen coated at 1 μg/mL, antibody titrated 0-1000 nM, HRP secondary, OD450-OD630
T1 construct: also called Delta like 4

人DLL4抗原 [2] = molecular target: T1, 人DLL4抗原; test: ELISA, DLL4 antigen coated at 1 μg/mL, conjugate titrated 0-1000 nM, HRP secondary, OD450-OD630

T1 sequence (Q9NR61 27-524 limits assumed): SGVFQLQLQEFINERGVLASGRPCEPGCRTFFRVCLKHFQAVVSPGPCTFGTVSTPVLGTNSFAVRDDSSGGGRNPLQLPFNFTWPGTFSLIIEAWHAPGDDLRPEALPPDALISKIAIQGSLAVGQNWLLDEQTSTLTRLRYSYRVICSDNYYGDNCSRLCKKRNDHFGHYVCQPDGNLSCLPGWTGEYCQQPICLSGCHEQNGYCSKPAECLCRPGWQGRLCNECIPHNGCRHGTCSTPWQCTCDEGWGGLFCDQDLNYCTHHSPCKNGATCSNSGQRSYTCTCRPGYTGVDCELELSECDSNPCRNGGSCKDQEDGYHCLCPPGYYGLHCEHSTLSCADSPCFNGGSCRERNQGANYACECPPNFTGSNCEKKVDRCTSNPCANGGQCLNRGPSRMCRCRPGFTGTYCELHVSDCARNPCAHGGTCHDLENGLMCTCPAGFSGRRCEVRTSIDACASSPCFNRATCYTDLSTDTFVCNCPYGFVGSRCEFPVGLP

EC50 (人DLL4抗原 [1]): 49.2 nM
B1: 抗人DLL4人源化抗体H3L2 (antibody)
heavy: not shown
light: EIVITQSPDFQSVTPKEKVTITCSVSSSISSSYLHWYQQKPDQSPKPWIYGTSNLASGVPSRFSGSGSGTDYTLTINSLEAEDAATYYCQQWSSSPLTFGQGTKLEIKVDTVAAPSVFIFPPSDEQLKSGTASVVCLLNNFYPREAKVQWKVDNALQSGNSQESVTEQDSKDSTYSLSSTLTLSKADYEKHKVYACEVTHQGLSSPVTKSFNRGEC
notes: IgG1 humanized antibody; also called 裸抗

EC50 (人DLL4抗原 [2]): 42.6 nM
B2: 抗人DLL4人源化抗体THL4与美登素生物碱DM1的偶联物HLmD4 (THL4-mpeo-DM1) (antibody, human IgG1, kappa, DAR 3.96)
heavy: not shown
light: B1 light with V207C
modifications: DM1 coupled through the BMPEO linker (mpeo-DM1) to the engineered Cys at light chain position 207 (V207C); DM1 coupled through the BMPEO linker (mpeo-DM1) to the engineered Cys at heavy chain position 121 (K121C)
notes: Antibody-drug conjugate of the IgG1 antibody THL4 (H3L2 with light chain V207C and heavy chain K121C) with DM1; average DAR 3.96 by HPLC; also called 抗体药物偶联物HLmD4
